Laboratory results published in patent publication US20190153108A1 (AbbVie / Abbott, published 2019).
Substitutions are numbered along the chain they refer to. Each block holds one binder with its values, some of them ahead of it.

Molecular target: human Epidermal Growth Factor Receptor (huEGFR) over-expressed in mcl-1-/- mouse embryonic fibroblasts (human, UniProt P00533 25-1210)
Experiment: cell-based or functional assay

B1: AbA-CZ (antibody, V domains shown)
VH: EVQLQESGPGLVKPSQTLSLTCTVSGYSISRDFAWNWIRQPPGKGLEWMGYISYNGNTRYQPSLKSRITISRDTSKNQFFLKLNSVTAADTATYYCVTASRGFPYWGQGTLVTVSS
VL: DIQMTQSPSSMSVSVGDRVTITCHSSQDINSNIGWLQQKPGKSFKGLIYHGTNLDDGVPSRFSGSGSGTDYTLTISSLQPEDFATYYCVQYAQFPWTFGGGTKLEIKR
modifications: synthon CZ on reduced interchain Cys
huEGFR^+ mcl-1^-/- MEF EC50: 0.3 nM

B2: AbG-SR (antibody, V domains shown)
VH: B1 VH with R31N, P41L, N55K, F103L
VL: B1 VL with N30T, S31Y, T52A, A92D, Q93E
modifications: synthon SR on reduced interchain Cys
huEGFR^+ mcl-1^-/- MEF EC50: 7 nM

B4: AbA-AAA (antibody, V domains shown)
VH: B1 VH
VL: B1 VL
modifications: synthon AAA on reduced interchain Cys
huEGFR^+ mcl-1^-/- MEF EC50: 220 nM

B5: AbB-SR (antibody, V domains shown)
VH: B1 VH with R31N, N55K, Y105W
VL: B1 VL
modifications: synthon SR on reduced interchain Cys
huEGFR^+ mcl-1^-/- MEF EC50: 7 nM

B7: AbA-SE (antibody, V domains shown)
VH: B1 VH
VL: B1 VL
modifications: synthon SE on reduced interchain Cys
huEGFR^+ mcl-1^-/- MEF EC50: 105 nM

B11: AbB-ZZ (antibody, V domains shown)
VH: B1 VH with R31N, N55K, Y105W
VL: B1 VL
modifications: synthon ZZ on reduced interchain Cys
huEGFR^+ mcl-1^-/- MEF EC50: 7.4 nM

B12: AbG-XW (antibody, V domains shown)
VH: B1 VH with R31N, P41L, N55K, F103L
VL: B1 VL with N30T, S31Y, T52A, A92D, Q93E
modifications: synthon XW on reduced interchain Cys
huEGFR^+ mcl-1^-/- MEF EC50: 19 nM

B13: AbB-SE (antibody, V domains shown)
VH: B1 VH with R31N, N55K, Y105W
VL: B1 VL
modifications: synthon SE on reduced interchain Cys
huEGFR^+ mcl-1^-/- MEF EC50: 39 nM

B14: AbG-YG (antibody, V domains shown)
VH: B1 VH with R31N, P41L, N55K, F103L
VL: B1 VL with N30T, S31Y, T52A, A92D, Q93E
modifications: synthon YG on reduced interchain Cys
huEGFR^+ mcl-1^-/- MEF EC50: 1 nM

B16: AbA-KZ (antibody, V domains shown)
VH: B1 VH
VL: B1 VL
modifications: synthon KZ on reduced interchain Cys
huEGFR^+ mcl-1^-/- MEF EC50: 152 nM

B20: AbK-YG (antibody, V domains shown)
VH: B1 VH with Y105W
VL: B1 VL with N30T, S31Y, I33V, T52S, D56H, A92D, Q93D
modifications: synthon YG on reduced interchain Cys
huEGFR^+ mcl-1^-/- MEF EC50: 37 nM

B21: AbK-SE (antibody, V domains shown)
VH: B1 VH with Y105W
VL: B1 VL with N30T, S31Y, I33V, T52S, D56H, A92D, Q93D
modifications: synthon SE on reduced interchain Cys
huEGFR^+ mcl-1^-/- MEF EC50: 161 nM

B27: AbG-SE (antibody, V domains shown)
VH: B1 VH with R31N, P41L, N55K, F103L
VL: B1 VL with N30T, S31Y, T52A, A92D, Q93E
modifications: synthon SE on reduced interchain Cys
huEGFR^+ mcl-1^-/- MEF EC50: 24 nM

B28: AbA-YY (antibody, V domains shown)
VH: B1 VH
VL: B1 VL
modifications: synthon YY on reduced interchain Cys
huEGFR^+ mcl-1^-/- MEF EC50: 460 nM

B30: AbB-ZT (antibody, V domains shown)
VH: B1 VH with R31N, N55K, Y105W
VL: B1 VL
modifications: synthon ZT on reduced interchain Cys
huEGFR^+ mcl-1^-/- MEF EC50: 8.9 nM

B31: AbB-CZ (antibody, V domains shown)
VH: B1 VH with R31N, N55K, Y105W
VL: B1 VL
modifications: synthon CZ on reduced interchain Cys
huEGFR^+ mcl-1^-/- MEF EC50: 5.9 nM

B32: AbG-ZT (antibody, V domains shown)
VH: B1 VH with R31N, P41L, N55K, F103L
VL: B1 VL with N30T, S31Y, T52A, A92D, Q93E
modifications: synthon ZT on reduced interchain Cys
huEGFR^+ mcl-1^-/- MEF EC50: 33 nM

B33: AbA-SR (antibody, V domains shown)
VH: B1 VH
VL: B1 VL
modifications: synthon SR on reduced interchain Cys
huEGFR^+ mcl-1^-/- MEF EC50: 5.9 nM

The next lines start with the values.

huEGFR^+ mcl-1^-/- MEF EC50: 8.9 nM
B3: AbK-SR (antibody, V domains shown)
VH: B1 VH with Y105W
VL: B1 VL with N30T, S31Y, I33V, T52S, D56H, A92D, Q93D
modifications: synthon SR on reduced interchain Cys

huEGFR^+ mcl-1^-/- MEF EC50: 32 nM
B6: AbA-XW (antibody, V domains shown)
VH: B1 VH
VL: B1 VL
modifications: synthon XW on reduced interchain Cys

huEGFR^+ mcl-1^-/- MEF EC50: 224 nM
B8: AbK-KZ (antibody, V domains shown)
VH: B1 VH with Y105W
VL: B1 VL with N30T, S31Y, I33V, T52S, D56H, A92D, Q93D
modifications: synthon KZ on reduced interchain Cys

huEGFR^+ mcl-1^-/- MEF EC50: 65 nM
B9: AbA-AAD (antibody, V domains shown)
VH: B1 VH
VL: B1 VL
modifications: synthon AAD on reduced interchain Cys

huEGFR^+ mcl-1^-/- MEF EC50: 0.65 nM
B10: AbB-XW (antibody, V domains shown)
VH: B1 VH with R31N, N55K, Y105W
VL: B1 VL
modifications: synthon XW on reduced interchain Cys

huEGFR^+ mcl-1^-/- MEF EC50: 96 nM
B15: AbG-KZ (antibody, V domains shown)
VH: B1 VH with R31N, P41L, N55K, F103L
VL: B1 VL with N30T, S31Y, T52A, A92D, Q93E
modifications: synthon KZ on reduced interchain Cys

huEGFR^+ mcl-1^-/- MEF EC50: 68 nM
B17: AbG-ZZ (antibody, V domains shown)
VH: B1 VH with R31N, P41L, N55K, F103L
VL: B1 VL with N30T, S31Y, T52A, A92D, Q93E
modifications: synthon ZZ on reduced interchain Cys

huEGFR^+ mcl-1^-/- MEF EC50: 6.4 nM
B18: AbA-YG (antibody, V domains shown)
VH: B1 VH
VL: B1 VL
modifications: synthon YG on reduced interchain Cys

huEGFR^+ mcl-1^-/- MEF EC50: 55 nM
B19: AbB-KZ (antibody, V domains shown)
VH: B1 VH with R31N, N55K, Y105W
VL: B1 VL
modifications: synthon KZ on reduced interchain Cys

huEGFR^+ mcl-1^-/- MEF EC50: 3.3 nM
B22: AbB-YG (antibody, V domains shown)
VH: B1 VH with R31N, N55K, Y105W
VL: B1 VL
modifications: synthon YG on reduced interchain Cys

huEGFR^+ mcl-1^-/- MEF EC50: 0.2 nM
B23: AbK-ZT (antibody, V domains shown)
VH: B1 VH with Y105W
VL: B1 VL with N30T, S31Y, I33V, T52S, D56H, A92D, Q93D
modifications: synthon ZT on reduced interchain Cys

huEGFR^+ mcl-1^-/- MEF EC50: 0.6 nM
B24: AbK-XW (antibody, V domains shown)
VH: B1 VH with Y105W
VL: B1 VL with N30T, S31Y, I33V, T52S, D56H, A92D, Q93D
modifications: synthon XW on reduced interchain Cys

huEGFR^+ mcl-1^-/- MEF EC50: 11 nM
B25: AbB-TX (antibody, V domains shown)
VH: B1 VH with R31N, N55K, Y105W
VL: B1 VL
modifications: synthon TX on reduced interchain Cys

huEGFR^+ mcl-1^-/- MEF EC50: 45 nM
B26: AbK-ZZ (antibody, V domains shown)
VH: B1 VH with Y105W
VL: B1 VL with N30T, S31Y, I33V, T52S, D56H, A92D, Q93D
modifications: synthon ZZ on reduced interchain Cys

huEGFR^+ mcl-1^-/- MEF EC50: 2.4 nM
B29: AbB-TV (antibody, V domains shown)
VH: B1 VH with R31N, N55K, Y105W
VL: B1 VL
modifications: synthon TV on reduced interchain Cys
